{"source": "patent US10335470B2", "about": "“Immunogenic compositions comprising progastrin and uses thereof” (Board of Regents, The University of Texas System, priority 2006, dated 2019)", "molecules": {"B1": {"name": "PG: full-length recombinant human progastrin PG1-80, 80 amino acids (SEQ ID NO:3), generated in E. coli (protein)", "chain": "SWKPRSQQPDAPLGTGANRDLELPWLEQQGPASHHRRQLGPQGPPHLVADPSKKQGPWLEEEEEAYGWMDFGRRSAEDEN", "modifications": "sequence of progastrin peptide expressed by recombinant expression vector"}, "B2": {"name": "rhPG fusion protein (FP): full length human progastrin protein fused with carrier protein thioredoxin (from bacteria), expressed in E. coli, used as immunogen (protein)", "chain": "B1 chain", "modifications": "left off: large carriers; small tags and cut ends", "notes": "full length human progastrin protein fused with carrier protein thioredoxin (from bacteria), expressed in E. coli, used as immunogen"}}, "key": {"[1]": {"target": "T1, specific binding sites for rhPG (Annexin II) (Rattus norvegicus, UniProt Q07936)", "T1 construct": "endogenous in cells; host or cells: AR42J cells; IEC cells", "T1 sequence (Q07936 2-339 limits assumed)": "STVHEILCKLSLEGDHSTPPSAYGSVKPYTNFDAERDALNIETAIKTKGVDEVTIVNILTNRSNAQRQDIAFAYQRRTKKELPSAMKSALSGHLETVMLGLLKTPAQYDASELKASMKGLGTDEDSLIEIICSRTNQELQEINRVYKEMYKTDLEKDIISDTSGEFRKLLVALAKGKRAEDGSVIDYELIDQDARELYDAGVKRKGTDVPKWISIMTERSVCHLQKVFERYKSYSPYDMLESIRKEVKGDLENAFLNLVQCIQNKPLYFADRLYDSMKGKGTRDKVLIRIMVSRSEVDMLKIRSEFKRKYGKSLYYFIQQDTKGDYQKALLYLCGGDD", "test": "Displacement of 125I-rhPG binding to AR42J and IEC cells", "conditions": "1.0 nM 125I-rhPG", "method": "FIGS. 8A-8C show binding of ^125I-rhPG and ^125I-BH-CCK8 to a pancreatic cancer cell line, AR42J and intestinal epithelial cells (IEC). […] The relative binding affinity of the gastrin like peptides for the specific binding sites for rhPG (FIGS. 8A and B) (Annexin II) and CCK8 (FIG. 8C) to CCK2R was calculated. Data in each point represents the mean values of triplicate measurements from a single experiment and is representative of 2 similar experiments. The intra-experimental variation for each data point was <5-10%. The nM concentration of each peptide used is presented in a log-scale on the x-axis; the excess unlabeled peptide used for displacing the binding of the radio labeled ligand is presented in parentheses. The % loss in the relative binding of the radio labeled ligand in the presence of the increasing concentrations of the indicated non-labeled peptide is presented on the y-axis. IEC cells lack CCK2R binding sites and therefore binding with radio-labeled CCK8 was not examined with these cells.\nThe full-length recombinant human PG1-80 (rhPG) was generated in an E. coli expression system and purified and confirmed as described previously (Singh et al, 2003). rhPG was radio labeled with Na ^125I (Amersham, Chicago, Ill.), and the intact ^125I-rhPG purified by HPLC as described previously (Singh et al, 2003). For these experiments, AR42J cells were expanded in vitro in […] and grown to subconfluence in the growth medium containing 10% FCS. […] The binding data was analyzed by a Scatchard plot as described previously (Singh et al, 1995). […]\nIn order to define the RBA of various peptides for the PG binding sites on the cells, cells in suspension were incubated with 1.0 nM ^125I-rhPG in the presence or absence of increasing concentrations (0.1 nM-10.0 μM) of either the homologous or heterologous peptide. Non-specific binding was determined in the presence of 1000× excess of the non-labeled homologous peptide. […] Cell pellets were counted for ^125I in a gamma counter with ˜70% efficiency for ^125I. […]"}, "thioredoxin": {"tested_on": "thioredoxin", "sequence (P0AA25 whole entry)": "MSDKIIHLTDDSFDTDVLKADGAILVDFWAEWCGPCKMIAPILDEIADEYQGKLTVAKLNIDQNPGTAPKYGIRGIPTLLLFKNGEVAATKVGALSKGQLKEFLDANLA", "conditions": "all mouse groups (WT and PS21)", "from_the_text": "Briefly, transgenic mice expressing human progastrin (PS21) and wild type mice were divided into 3 groups and immunized with (a) recombinant thioredoxin, (b) a recombinant fusion protein where human progastrin was fused with thioredoxin and recombinant progastrin, all proteins were expressed in E. coli and purified from cell extract. Each protein was emulsified using CFA/IFA (Sigma) as an adjuvant. The mice that received vaccine emulsified using CFA on day 1 followed by two subsequent immunization using IFA on day 21 and day 42. All injections were administered subcutaneously. Mice were bled and serum prepared to estimate the titers once a week for 3 weeks, 15 days after the final immunization.\nThe antibody tires in serum were determined by solid phase ELISA using limiting dilution method. Briefly, 96 wells PVC ELISA plates (Falcon) were coated with 3 different recombinant protein expressed in E. coli that were used to vaccinate mice i.e. recombinant thioredoxin, Thioredoxin-PG fusion protein and recombinant PG. Recombinant proteins were dissolved in carbonate buffer pH 9.0 and coated at a concentration of 50 μg/50 μl/well. The plates were incubated overnight at 4° C. Following day the plates were flipped and the well were blocked with 100 μl 2% non fat dry milk (NFDM) and plated were incubated at 37° C. for 3-4 hours. […] The ELISA plated were them read in plate reader at 490 nm."}, "[2]": {"tested_on": "aberrant crypt foci in PS21 (Fabp-PG) mice", "test": "Aberrant crypt foci in response to AOM in immunized PS21 Fabp-PG transgenic mice", "format": "in vivo, mouse", "conditions": "immunized PS21 mice vs wild type mice", "method": "Aberrant crypt forci (ACFs) are pre-neoplastic markers of colon carcinogenesis and represent dysplastic growth of colonic crypts, which is the earliest stage of pre-cancerous changes in the colonic mucosa as described in detail previously (Singh et al, 2000b). […] These mice were immunized with either thioredoxin, or the progastrin peptide alone or the fusion protein (FP) which contained thioredoxin and progastrin.\nAll injections were administered subcutaneously. […] The ACFs were then counted."}, "progastrin": {"tested_on": "progastrin", "test": "Anti-progastrin antibody titers in immunized mice (solid phase ELISA)", "format": "in vivo, mouse", "conditions": "for anti-PG-antibody titers: PS21 transgenic and WT mice, CFA/IFA, s.c. day 1, 21, 42"}, "[3]": {"tested_on": "intestinal epithelial cells (IEC), colon cancer cells and pancreatic cancer cells", "conditions": "cited from earlier work"}, "CCK2R": {"target": "T2, CCK2R (Rattus norvegicus, UniProt P30553)", "T2 construct": "endogenous in cells; host or cells: AR42J cells", "T2 sequence (P30553 1-452)": "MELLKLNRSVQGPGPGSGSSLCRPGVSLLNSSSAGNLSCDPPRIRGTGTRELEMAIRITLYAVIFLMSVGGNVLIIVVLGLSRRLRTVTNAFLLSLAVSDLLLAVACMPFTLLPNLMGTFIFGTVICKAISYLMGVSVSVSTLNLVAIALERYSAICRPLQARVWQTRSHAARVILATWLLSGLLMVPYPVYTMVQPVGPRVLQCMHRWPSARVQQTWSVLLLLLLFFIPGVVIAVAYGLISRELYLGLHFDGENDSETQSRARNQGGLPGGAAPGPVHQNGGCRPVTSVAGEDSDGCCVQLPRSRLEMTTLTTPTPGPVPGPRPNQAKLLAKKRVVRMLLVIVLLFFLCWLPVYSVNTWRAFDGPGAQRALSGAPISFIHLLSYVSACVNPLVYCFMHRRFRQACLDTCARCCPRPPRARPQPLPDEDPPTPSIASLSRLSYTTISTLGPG", "test": "Displacement of 125I-BH-CCK8 binding to AR42J cells", "quoted_text": "Cells were incubated with the indicated radio labeled ligand in the presence or absence of increasing concentrations of either CCK8, G17 or rhPG. The relative binding affinity of the gastrin like peptides for the specific binding sites for rhPG (FIGS. 8A and B) (Annexin II) and CCK8 (FIG. 8C) to CCK2R was calculated.\nIn a few experiments, ^125I-Bolton Hunter-CCK-8 (Amersham Biosciences, Piscataway, N.J.) was used as the radiolabeled ligand and the RBA of gastrin like peptides for displacing the binding of ^125I-BH-CCK8 to AR42J cells examined by our published methods (Singh et al, 1995)."}, "[4]": {"tested_on": "mouse colon cancer (CA) cells", "test": "Growth of mouse colon cancer (CA) cells in immunized Balb/c mice", "format": "in vivo", "conditions": "CA cells inoculated at week 10, sacrificed week 14, control adjuvant alone, listed as hPG-immunogen", "excerpt": "(§1) FIGS. 6A-6C show immune response induced by hPG-fusion protein (FP) immunogen in different mouse models. […] The immunized Balb/c mice were inoculated with mouse CA cells at week 10 and sacrificed at week 14 and the tumors in the mice were weighed. Control mice received adjuvant alone. The weight of the tumors is indicated by an arrow against Ab titer of each mouse in mgs. Tumor weights from 3 of 6 animals are presented. […] FIGS. 6B and 6C show effect of vaccination with rhPG-FP immunogen on colon carcinogenesis in FVB/N mice. FVB/N mice were immunized with the hPG-fusion protein (FP) immunogen by 3-4 weekly injections and the PG-Ab titers were measured as described for the Balb/c mice. Once the mice developed significant PG-Ab titers, the mice were treated with azoxymethane (AOM) and the total number and size of tumors measured after 6 months of AOM treatment. The number of tumors (FIG. 6B) and the tumor burden (FIG. 6C) is presented herein. *=p<0.05 vs control values. Control mice were immunized with adjuvant alone.\n(§2) Since autocrine and endocrine PG might be playing an important role in colon carcinogenesis, the possibility of using an rhPG fusion protein as an immunogen for treatment purposes was examined. Briefly, the rhPG fusion protein (FP) was used as an immunogen in Balb/C, FVB/N and FABP-PG mice. […]"}, "[5]": {"tested_on": "colon tumors in FVB/N mice", "test": "AOM-induced colon carcinogenesis in immunized FVB/N mice", "format": "in vivo, mouse", "conditions": "6 months after AOM, vs adjuvant alone", "excerpt": "as §1, §2"}}, "data": [{"molecule": "G17: 17 amino acid C-terminally amidated gastrin peptide", "values": [{"measurement": "displacement of binding of radio-labeled rhPG / binding affinity for PG binding sites", "setting": "[1]", "value": "negligible binding affinity"}]}, {"molecule": "CCK: cholecystokinin (CCK-8), amidated peptide closely related to gastrin", "values": [{"measurement": "displacement of binding of radio-labeled rhPG / binding affinity for PG binding sites", "setting": "[1]", "value": "negligible binding affinity"}]}, {"molecule": "thioredoxin: recombinant bacterial thioredoxin carrier protein expressed in E. coli, used alone as immunogen [reference compound]", "values": [{"measurement": "anti-thioredoxin-antibody titers", "setting": "thioredoxin", "value": "significant titers"}, {"measurement": "development of ACF in response to AOM", "setting": "[2]", "value": "significantly enhanced"}, {"measurement": "anti-PG-antibody titers", "setting": "progastrin", "value": "not effective at all"}]}, {"molecule": "B1", "values": [{"measurement": "growth factor-like effects on cells", "setting": "[3]", "value": "potent growth factor-like effects"}, {"measurement": "displacement of binding of 125I-BH-CCK8 to CCK2R", "setting": "CCK2R", "value": "largely ineffective"}, {"measurement": "development of ACF in response to AOM", "setting": "[2]", "value": "significantly enhanced"}, {"measurement": "anti-PG-antibody titers", "setting": "progastrin", "value": "much less effective"}, {"measurement": "anti-PG-antibody titers", "setting": "progastrin; listed as PG peptide", "value": "much lower levels"}, {"measurement": "displacement of binding of radio-labeled rhPG / binding affinity for PG binding sites", "setting": "[1]", "value": "dose-dependently displaced"}]}, {"molecule": "B2", "values": [{"measurement": "CA tumor weights reduced compared to control mice", "setting": "[4]", "value": "15-30%"}, {"measurement": "development of ACF in response to AOM", "setting": "[2]", "value": "complete attenuation"}, {"measurement": "titers of specific anti-hPG-Abs", "setting": "progastrin; Balb/C, FVB/N and FABP-PG mice, within 4-8 weeks of vaccination", "value": "very high titers"}, {"measurement": "generation of PG antibodies, FP vs PG alone", "setting": "progastrin; PS21 mice", "value": 2, "unit": "fold"}, {"measurement": "anti-PG-antibody titers", "setting": "progastrin", "value": "2 fold to much higher titers"}, {"measurement": "anti-PG-antibody titers", "setting": "progastrin; listed as progastrin fusion protein", "value": "strong response"}, {"measurement": "total number of tumors", "setting": "[5]", "value": "significantly (p<0.05) reduced"}, {"measurement": "tumor burden/mouse", "setting": "[5]", "value": "significantly (p<0.05) reduced"}]}]}
